Source: the supplement of paper PMC9112550, “Optimization of the antimicrobial peptide Bac7 by deep mutational scanning” (BMC Biology, 2022)

Tested on: Escherichia coli TOP10
Assay: shrunken log2 fold change of peptide-encoding DNA abundance (4.5 h post-induction vs induction); higher = less antimicrobial activity (less host growth inhibition)
Conditions: time post-induction: 4.5 h; library: site-saturation at positions 5, 18, 19, 20
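Note: peptides expressed intracellularly from a pBAD plasmid library in pooled LB shake-flask culture, induced with 0.3% L-arabinose, DNA abundance read by NGS, three biological replicates, DESeq2 with apeglm shrinkage.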

Sequence	shrunken log2 fold change
RRIRRRPPRLPRPRPRPECCPRP	0.566
RRIRRRPPRLPRPRPRPECGPRP	0.938
RRIRRRPPRLPRPRPRPEENPRP	0.157
RRIRRRPPRLPRPRPRPEEWPRP	-0.00804
RRIRRRPPRLPRPRPRPEFSPRP	0.0744
RRIRRRPPRLPRPRPRPEGKPRP	0.0207
RRIRRRPPRLPRPRPRPEGYPRP	0.202
RRIRRRPPRLPRPRPRPEHHPRP	0.202
RRIRRRPPRLPRPRPRPEHYPRP	0.0555
RRIRRRPPRLPRPRPRPEKMPRP	0.296
RRIRRRPPRLPRPRPRPELKPRP	0.254
RRIRRRPPRLPRPRPRPEMMPRP	0.345
RRIRRRPPRLPRPRPRPENQPRP	0.368
RRIRRRPPRLPRPRPRPEPFPRP	-0.0448
RRIRRRPPRLPRPRPRPEQPPRP	0.389
RRIRRRPPRLPRPRPRPEQSPRP	0.353
RRIRRRPPRLPRPRPRPERCPRP	0.322
RRIRRRPPRLPRPRPRPERKPRP	0.0556
RRIRRRPPRLPRPRPRPETGPRP	0.304
RRIRRRPPRLPRPRPRPETSPRP	0.4
RRIRRRPPRLPRPRPRPEVIPRP	-0.0658
RRIRRRPPRLPRPRPRPEVVPRP	0.472
RRIRRRPPRLPRPRPRPEWKPRP	0.0796
RRIRRRPPRLPRPRPRPEWRPRP	0.639
RRIRRRPPRLPRPRPRPEWSPRP	0.274

Sequence	shrunken log2 fold change
RRIRRRPPRLPRPRPRPFALPRP	-0.00461
RRIRRRPPRLPRPRPRPFATPRP	0.814
RRIRRRPPRLPRPRPRPFCFPRP	0.218
RRIRRRPPRLPRPRPRPFCLPRP	0.194
RRIRRRPPRLPRPRPRPFCTPRP	-0.13
RRIRRRPPRLPRPRPRPFDCPRP	0.264
RRIRRRPPRLPRPRPRPFFLPRP	0.0467
RRIRRRPPRLPRPRPRPFHKPRP	0.0306
RRIRRRPPRLPRPRPRPFIGPRP	-0.25
RRIRRRPPRLPRPRPRPFLSPRP	0.128
RRIRRRPPRLPRPRPRPFMKPRP	-0.213
RRIRRRPPRLPRPRPRPFNCPRP	-0.301
RRIRRRPPRLPRPRPRPFQIPRP	-0.325
RRIRRRPPRLPRPRPRPFQNPRP	0.0537
RRIRRRPPRLPRPRPRPFRHPRP	-0.212
RRIRRRPPRLPRPRPRPFTCPRP	-0.0792
RRIRRRPPRLPRPRPRPFTRPRP	-0.0292
RRIRRRPPRLPRPRPRPFVHPRP	0.0512
RRIRRRPPRLPRPRPRPFWRPRP	0.0251
RRIRRRPPRLPRPRPRPFWTPRP	0.00443
RRIRRRPPRLPRPRPRPGAFPRP	0.539
RRIRRRPPRLPRPRPRPGAQPRP	0.352
RRIRRRPPRLPRPRPRPGASPRP	0.665
RRIRRRPPRLPRPRPRPGCPPRP	0.414
RRIRRRPPRLPRPRPRPGCQPRP	-0.176

Sequence	shrunken log2 fold change
RRIRRRPPRLPRPRPRPGHHPRP	-0.139
RRIRRRPPRLPRPRPRPGHWPRP	0.0797
RRIRRRPPRLPRPRPRPGIKPRP	-0.291
RRIRRRPPRLPRPRPRPGKCPRP	-0.283
RRIRRRPPRLPRPRPRPGKSPRP	0.0256
RRIRRRPPRLPRPRPRPGLHPRP	0.0196
RRIRRRPPRLPRPRPRPGMKPRP	-0.133
RRIRRRPPRLPRPRPRPGMLPRP	0.0899
RRIRRRPPRLPRPRPRPGRVPRP	0.593
RRIRRRPPRLPRPRPRPGSQPRP	-0.0144
RRIRRRPPRLPRPRPRPGSTPRP	0.1
RRIRRRPPRLPRPRPRPGVDPRP	0.31
RRIRRRPPRLPRPRPRPGVVPRP	0.281
RRIRRRPPRLPRPRPRPGWRPRP	0.425
RRIRRRPPRLPRPRPRPGWSPRP	0.472
RRIRRRPPRLPRPRPRPGYQPRP	0.0538
RRIRRRPPRLPRPRPRPHAAPRP	0.837
RRIRRRPPRLPRPRPRPHANPRP	0.275
RRIRRRPPRLPRPRPRPHCMPRP	-0.329
RRIRRRPPRLPRPRPRPHDLPRP	0.22
RRIRRRPPRLPRPRPRPHDNPRP	-0.13
RRIRRRPPRLPRPRPRPHEYPRP	-0.0758
RRIRRRPPRLPRPRPRPHFIPRP	-0.0325
RRIRRRPPRLPRPRPRPHGRPRP	0.0549
RRIRRRPPRLPRPRPRPHHIPRP	-0.637

Sequence	shrunken log2 fold change
RRIRRRPPRLPRPRPRPHMSPRP	-0.0996
RRIRRRPPRLPRPRPRPHNTPRP	-0.115
RRIRRRPPRLPRPRPRPHQKPRP	0.474
RRIRRRPPRLPRPRPRPHRAPRP	0.243
RRIRRRPPRLPRPRPRPHSLPRP	-0.113
RRIRRRPPRLPRPRPRPHTEPRP	-0.0233
RRIRRRPPRLPRPRPRPHTSPRP	-0.0729
RRIRRRPPRLPRPRPRPHYMPRP	-0.126
RRIRRRPPRLPRPRPRPICQPRP	0.133
RRIRRRPPRLPRPRPRPIEDPRP	-0.089
RRIRRRPPRLPRPRPRPIEGPRP	0.0101
RRIRRRPPRLPRPRPRPIENPRP	-0.0103
RRIRRRPPRLPRPRPRPIESPRP	0.0332
RRIRRRPPRLPRPRPRPIETPRP	-0.00874
RRIRRRPPRLPRPRPRPIEVPRP	0.0048
RRIRRRPPRLPRPRPRPIEWPRP	0.375
RRIRRRPPRLPRPRPRPIEYPRP	-0.124
RRIRRRPPRLPRPRPRPIFEPRP	0.0525
RRIRRRPPRLPRPRPRPIFNPRP	-0.124
RRIRRRPPRLPRPRPRPIFWPRP	0.821
RRIRRRPPRLPRPRPRPIHSPRP	0.0881
RRIRRRPPRLPRPRPRPIIIPRP	0.0103
RRIRRRPPRLPRPRPRPIINPRP	-0.207
RRIRRRPPRLPRPRPRPIKAPRP	0.0673
RRIRRRPPRLPRPRPRPIKPPRP	0.0148

Sequence	shrunken log2 fold change
RRIRRRPPRLPRPRPRPIKYPRP	0.0338
RRIRRRPPRLPRPRPRPILPPRP	0.177
RRIRRRPPRLPRPRPRPILRPRP	0.691
RRIRRRPPRLPRPRPRPINNPRP	-0.407
RRIRRRPPRLPRPRPRPIRFPRP	0.0747
RRIRRRPPRLPRPRPRPISDPRP	0.136
RRIRRRPPRLPRPRPRPISLPRP	-0.224
RRIRRRPPRLPRPRPRPIWHPRP	0.176
RRIRRRPPRLPRPRPRPIWQPRP	0.0175
RRIRRRPPRLPRPRPRPIWSPRP	-0.000832
RRIRRRPPRLPRPRPRPIYVPRP	-0.114
RRIRRRPPRLPRPRPRPKCYPRP	0.00463
RRIRRRPPRLPRPRPRPKDCPRP	0.132
RRIRRRPPRLPRPRPRPKDFPRP	-0.123
RRIRRRPPRLPRPRPRPKEKPRP	-0.00936
RRIRRRPPRLPRPRPRPKEPPRP	0.293
RRIRRRPPRLPRPRPRPKEVPRP	0.195
RRIRRRPPRLPRPRPRPKFLPRP	0.133
RRIRRRPPRLPRPRPRPKGEPRP	0.0115
RRIRRRPPRLPRPRPRPKLNPRP	0.101
RRIRRRPPRLPRPRPRPKMVPRP	0.105
RRIRRRPPRLPRPRPRPKNRPRP	-0.0177
RRIRRRPPRLPRPRPRPKNYPRP	-0.177
RRIRRRPPRLPRPRPRPKPTPRP	0.426
RRIRRRPPRLPRPRPRPKPYPRP	-0.033

Sequence	shrunken log2 fold change
RRIRRRPPRLPRPRPRPKQQPRP	0.0775
RRIRRRPPRLPRPRPRPKQRPRP	0.288
RRIRRRPPRLPRPRPRPKQYPRP	-0.215
RRIRRRPPRLPRPRPRPKVAPRP	0.0861
RRIRRRPPRLPRPRPRPKVFPRP	-0.00912
RRIRRRPPRLPRPRPRPKVKPRP	-0.0947
RRIRRRPPRLPRPRPRPKVVPRP	0.0343
RRIRRRPPRLPRPRPRPKYRPRP	-0.000605
RRIRRRPPRLPRPRPRPKYVPRP	-0.194
RRIRRRPPRLPRPRPRPLAPPRP	0.399
RRIRRRPPRLPRPRPRPLAWPRP	0.226
RRIRRRPPRLPRPRPRPLCMPRP	-0.126
RRIRRRPPRLPRPRPRPLDMPRP	-0.114
RRIRRRPPRLPRPRPRPLELPRP	0.199
RRIRRRPPRLPRPRPRPLEQPRP	0.166
RRIRRRPPRLPRPRPRPLETPRP	1.01
RRIRRRPPRLPRPRPRPLEWPRP	0.266
RRIRRRPPRLPRPRPRPLFFPRP	0.137
RRIRRRPPRLPRPRPRPLFPPRP	0.0907
RRIRRRPPRLPRPRPRPLGKPRP	-0.017
RRIRRRPPRLPRPRPRPLGRPRP	-0.143
RRIRRRPPRLPRPRPRPLHNPRP	0.188
RRIRRRPPRLPRPRPRPLKGPRP	-0.0966
RRIRRRPPRLPRPRPRPLKHPRP	0.208
RRIRRRPPRLPRPRPRPLKQPRP	0.223
